Assay results reported in PMC8931250, “A SURF4-to-proteoglycan relay mechanism that mediates the sorting and secretion of a tagged variant of sonic hedgehog” (Proceedings of the National Academy of Sciences of the …, 2022).

B1: GST-SURF4^49-60 [human] / CW peptides (KRRHPKKC) [not stated (human or mouse cDNA cloned)] (parent complex)
chain 1: SEQRDYIDTTWN
chain 2: KRRHPKKC

Variants of: B1
Experiment: peptide pull-down (peptides on thiopyridone Sepharose 6B), anti-GST immunoblot quantification; n = 3, mean ± SD; parent: 1; read off a plot

Q: chain 2 AAAHPAAC was tested. Which ratio to parent did it give?
A: ~0.03
